Results on three molecules are retold here after publication PMC11236707, “dsRNA formation leads to preferential nuclear export and gene expression”.

Data set [1] concerns the target T1, Mex67 (in Mex67-Mtr2 heterodimer);Mtr2 (in Mex67-Mtr2 heterodimer) (Saccharomyces cerevisiae;Saccharomyces …, UniProt Q99257;P34232 1-599;1-184, |).
T1 sequence 1: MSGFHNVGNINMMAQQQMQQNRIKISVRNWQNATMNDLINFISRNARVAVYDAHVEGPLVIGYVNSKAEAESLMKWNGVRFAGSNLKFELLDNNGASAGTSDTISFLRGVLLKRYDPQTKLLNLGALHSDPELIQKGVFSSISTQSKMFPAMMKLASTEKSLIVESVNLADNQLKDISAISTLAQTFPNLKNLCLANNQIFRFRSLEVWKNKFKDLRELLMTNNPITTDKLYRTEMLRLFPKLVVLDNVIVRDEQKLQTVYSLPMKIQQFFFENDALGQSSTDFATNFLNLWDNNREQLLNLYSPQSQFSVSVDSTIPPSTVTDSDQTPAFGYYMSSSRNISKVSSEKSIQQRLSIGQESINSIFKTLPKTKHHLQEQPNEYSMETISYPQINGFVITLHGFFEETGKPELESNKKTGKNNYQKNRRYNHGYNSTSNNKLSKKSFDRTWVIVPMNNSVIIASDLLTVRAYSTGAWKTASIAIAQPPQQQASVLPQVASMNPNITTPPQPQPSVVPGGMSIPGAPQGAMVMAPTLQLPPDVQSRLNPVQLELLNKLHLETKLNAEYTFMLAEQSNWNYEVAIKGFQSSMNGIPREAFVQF
T1 sequence 2: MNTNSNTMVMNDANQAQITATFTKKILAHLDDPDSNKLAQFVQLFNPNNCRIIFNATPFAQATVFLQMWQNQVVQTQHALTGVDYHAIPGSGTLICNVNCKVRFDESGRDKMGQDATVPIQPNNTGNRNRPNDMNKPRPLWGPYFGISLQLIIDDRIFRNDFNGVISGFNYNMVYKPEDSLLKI
The experiment in a line: competition; N4 added to complex preformed on N1; labels switched, same effect; 30 mM HEPES-KOH, 160 mM KCl, pH 7.6, Ribolock, 30 C 15 min; 4 uM RNA with 4-44 uM Mex67-Mtr2 (competition 3 uM RNA, 12 uM protein); 0.5% agarose, 1x TAE pH 9.5, 4 C. To be noted: protein: recombinant;recombinant; HisFF purification;; copies: 1;1; label: Cy5 on one strand; blunt.

The target in data set [2] is T1, Mex67 (in Mex67-Mtr2 heterodimer);Mtr2 …. Description: EMSA; 4 uM RNA; full upshift at 2-fold, saturated at 5-fold molar excess; 30 mM HEPES-KOH, 160 mM KCl, pH 7.6, Ribolock, 30 C 15 min; 4 uM RNA with 4-44 uM Mex67-Mtr2 (competition 3 uM RNA, 12 uM protein); 0.5% agarose, 1x TAE pH 9.5, 4 C. The conditions noted are these: protein: recombinant;recombinant; HisFF purification;; copies: 1;1; label: FAM; single strand.

Data set [3] shares this target. Description: EMSA; 4 uM RNA; full upshift at 3-fold, saturated at 10-fold molar excess; 30 mM HEPES-KOH, 160 mM KCl, pH 7.6, Ribolock, 30 C 15 min; 4 uM RNA with 4-44 uM Mex67-Mtr2 (competition 3 uM RNA, 12 uM protein); 0.5% agarose, 1x TAE pH 9.5, 4 C. To be noted: protein: recombinant;recombinant; HisFF purification;; copies: 1;1; label: FAM on one strand; blunt.

B1: 36-bp dsRNA, Cy5 (dsRNA)
RNA 1: UUAUAUGUCUUGUUCUCUUGUAUCUGUUCUUGUUGU
RNA 2: ACAACAAGAACAGAUACAAGAGAACAAGACAUAUAA
In the case of B1, the binding result in data set [1] is given as “binds”. Regarding UUUUUUUUAUUGCCUGGUUGCCUGGUUAUUUCUAUU (ssRNA) [36-nt ssRNA, FAM], the binding result in data set [2] is reported as “binds”.

B2: 36-bp dsRNA, FAM (dsRNA)
RNA 1: UUUUUUUUAUUGCCUGGUUGCCUGGUUAUUUCUAUU
RNA 2: AAUAGAAAUAACCAGGCAACCAGGCAAUAAAAAAAA
For the molecule B2, the binding result in data set [3] is “binds”.
